Results published in patent publication US20150258192A1, “COMPOSITIONS AND METHODS FOR PREVENTING OR TREATING CHRONIC LUNG ALLOGRAFT DYSFUNCTION (CLAD) AND IDIOPATHIC PULMONARY FIBROSIS (IPF)” (priority 2014, published 2015).
No end group written: not given here.

Key:
Assay in all cases: Kinase Profiling Assay
Type in all cases: biochemical
Settings in all cases: peptide 100 μM
Fms(h) = Fms(h) (Homo sapiens, UniProt P07333)
Outline: (§1)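 Specificity of MK2 inhibitory peptides is assessed against a panel of 266 human kinases. Kinase transfers a radiolabeled phosphate from ATP onto a positively charged substrate, which is trapped on a negatively charged filter and quantified by scintillation counting against full-activity control; duplicate determinations.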

JAK2(h) = molecular target: T1, JAK2(h) (Homo sapiens, UniProt O60674)
T1 construct: purchased Millipore
T1 sequence (O60674 whole entry): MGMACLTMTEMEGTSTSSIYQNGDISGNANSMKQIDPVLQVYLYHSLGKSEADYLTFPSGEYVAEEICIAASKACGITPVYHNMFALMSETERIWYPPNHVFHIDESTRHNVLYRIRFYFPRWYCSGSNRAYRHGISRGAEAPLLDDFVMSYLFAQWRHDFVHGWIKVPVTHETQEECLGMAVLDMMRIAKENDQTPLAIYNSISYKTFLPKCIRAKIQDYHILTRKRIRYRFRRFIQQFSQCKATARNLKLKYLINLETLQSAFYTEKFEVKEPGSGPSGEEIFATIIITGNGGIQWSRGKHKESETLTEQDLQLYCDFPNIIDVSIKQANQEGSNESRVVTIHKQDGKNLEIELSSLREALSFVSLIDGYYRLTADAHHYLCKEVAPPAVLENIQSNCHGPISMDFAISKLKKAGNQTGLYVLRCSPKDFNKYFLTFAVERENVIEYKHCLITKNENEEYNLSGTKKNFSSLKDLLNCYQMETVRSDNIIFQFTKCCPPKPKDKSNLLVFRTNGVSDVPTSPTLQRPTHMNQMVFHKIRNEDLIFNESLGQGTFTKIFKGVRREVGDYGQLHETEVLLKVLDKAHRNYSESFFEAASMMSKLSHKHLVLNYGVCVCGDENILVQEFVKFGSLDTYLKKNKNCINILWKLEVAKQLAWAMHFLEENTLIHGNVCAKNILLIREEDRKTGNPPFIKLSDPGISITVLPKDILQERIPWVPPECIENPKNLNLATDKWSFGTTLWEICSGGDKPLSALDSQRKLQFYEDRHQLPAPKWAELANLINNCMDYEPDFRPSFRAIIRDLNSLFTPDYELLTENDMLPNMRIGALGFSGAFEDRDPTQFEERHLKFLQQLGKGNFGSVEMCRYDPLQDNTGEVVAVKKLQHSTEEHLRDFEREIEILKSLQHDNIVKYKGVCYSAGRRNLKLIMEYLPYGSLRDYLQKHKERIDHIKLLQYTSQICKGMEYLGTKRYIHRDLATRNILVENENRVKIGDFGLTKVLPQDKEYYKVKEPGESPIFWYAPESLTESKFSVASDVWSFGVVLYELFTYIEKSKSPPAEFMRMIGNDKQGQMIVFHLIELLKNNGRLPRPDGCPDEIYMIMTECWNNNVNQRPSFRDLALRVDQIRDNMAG
Outline: as §1

DAPK2(h) = DAPK2(h) (Homo sapiens, UniProt Q9UIK4)
DAPK2(h), sequence (Q9UIK4 whole entry): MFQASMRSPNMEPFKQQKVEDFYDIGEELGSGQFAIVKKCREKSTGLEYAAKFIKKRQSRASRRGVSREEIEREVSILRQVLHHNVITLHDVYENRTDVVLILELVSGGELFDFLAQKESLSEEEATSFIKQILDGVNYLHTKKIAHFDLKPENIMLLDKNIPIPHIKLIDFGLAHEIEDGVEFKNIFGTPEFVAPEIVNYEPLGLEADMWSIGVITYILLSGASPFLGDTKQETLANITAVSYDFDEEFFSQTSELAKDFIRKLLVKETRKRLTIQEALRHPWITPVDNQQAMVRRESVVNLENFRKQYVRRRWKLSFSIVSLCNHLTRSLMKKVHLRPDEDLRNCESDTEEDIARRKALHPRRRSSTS
Outline: as §1

SAPK2a(h) = molecular target: T2, SAPK2a(h) (Homo sapiens, UniProt Q16539)
T2 construct: purchased Millipore
T2 sequence (Q16539 whole entry): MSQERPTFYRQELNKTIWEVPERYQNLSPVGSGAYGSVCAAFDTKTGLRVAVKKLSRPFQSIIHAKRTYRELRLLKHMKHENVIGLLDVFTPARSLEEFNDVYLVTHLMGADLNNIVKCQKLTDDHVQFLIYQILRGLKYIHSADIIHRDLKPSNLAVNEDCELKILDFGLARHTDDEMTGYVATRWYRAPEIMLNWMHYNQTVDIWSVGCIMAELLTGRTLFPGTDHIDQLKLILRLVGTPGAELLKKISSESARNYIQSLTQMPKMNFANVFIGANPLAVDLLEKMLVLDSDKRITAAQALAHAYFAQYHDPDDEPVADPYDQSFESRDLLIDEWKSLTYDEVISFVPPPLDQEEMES
Outline: as §1

TAK1(h) = molecular target: T3, TAK1(h) (Homo sapiens, UniProt O43318)
T3 construct: purchased Millipore
T3 sequence (O43318 1-303 limits assumed): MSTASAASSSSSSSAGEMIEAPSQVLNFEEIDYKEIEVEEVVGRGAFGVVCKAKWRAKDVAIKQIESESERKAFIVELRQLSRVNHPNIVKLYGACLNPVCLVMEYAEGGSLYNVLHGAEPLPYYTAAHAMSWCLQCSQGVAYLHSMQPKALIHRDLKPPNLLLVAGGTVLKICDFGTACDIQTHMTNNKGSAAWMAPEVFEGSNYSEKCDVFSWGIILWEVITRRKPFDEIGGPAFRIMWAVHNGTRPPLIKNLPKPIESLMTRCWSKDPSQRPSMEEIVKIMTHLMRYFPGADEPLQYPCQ
Outline: as §1

Haspin(h) = molecular target: T4, Haspin(h) (Homo sapiens, UniProt Q8TF76)
T4 construct: purchased Millipore
T4 sequence (Q8TF76 1-798): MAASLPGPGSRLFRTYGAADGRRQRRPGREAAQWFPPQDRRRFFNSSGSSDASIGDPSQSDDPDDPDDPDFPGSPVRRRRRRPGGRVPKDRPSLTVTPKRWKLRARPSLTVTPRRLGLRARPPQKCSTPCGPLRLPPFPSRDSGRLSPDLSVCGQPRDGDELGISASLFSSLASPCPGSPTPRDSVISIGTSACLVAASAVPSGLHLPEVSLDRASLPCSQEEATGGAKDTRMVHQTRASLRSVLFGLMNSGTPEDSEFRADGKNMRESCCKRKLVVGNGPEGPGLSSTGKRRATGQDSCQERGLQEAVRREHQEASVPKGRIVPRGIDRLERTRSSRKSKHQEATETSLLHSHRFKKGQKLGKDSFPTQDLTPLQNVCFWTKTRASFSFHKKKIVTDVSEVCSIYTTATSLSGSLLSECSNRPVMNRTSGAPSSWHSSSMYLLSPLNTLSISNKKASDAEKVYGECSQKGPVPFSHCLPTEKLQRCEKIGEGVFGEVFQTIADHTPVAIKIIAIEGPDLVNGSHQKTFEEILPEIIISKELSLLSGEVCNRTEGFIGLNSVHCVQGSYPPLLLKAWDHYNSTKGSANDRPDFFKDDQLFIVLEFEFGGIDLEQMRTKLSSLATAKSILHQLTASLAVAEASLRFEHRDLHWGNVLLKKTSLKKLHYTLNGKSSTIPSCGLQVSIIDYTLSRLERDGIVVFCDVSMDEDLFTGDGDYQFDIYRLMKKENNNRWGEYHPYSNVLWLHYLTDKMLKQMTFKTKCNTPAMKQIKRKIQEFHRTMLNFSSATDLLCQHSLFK
Outline: as §1

JNK2α2(h) = molecular target: T5, JNK2α2(h) (Homo sapiens, UniProt P45984)
T5 construct: purchased Millipore
Outline: as §1

ZIPK(h) = ZIPK(h) (Homo sapiens, UniProt O43293)
Outline: as §1

NEK3(h) = molecular target: T6, NEK3(h) (Homo sapiens, UniProt P51956)
T6 construct: purchased Millipore
T6 sequence (P51956 1-506): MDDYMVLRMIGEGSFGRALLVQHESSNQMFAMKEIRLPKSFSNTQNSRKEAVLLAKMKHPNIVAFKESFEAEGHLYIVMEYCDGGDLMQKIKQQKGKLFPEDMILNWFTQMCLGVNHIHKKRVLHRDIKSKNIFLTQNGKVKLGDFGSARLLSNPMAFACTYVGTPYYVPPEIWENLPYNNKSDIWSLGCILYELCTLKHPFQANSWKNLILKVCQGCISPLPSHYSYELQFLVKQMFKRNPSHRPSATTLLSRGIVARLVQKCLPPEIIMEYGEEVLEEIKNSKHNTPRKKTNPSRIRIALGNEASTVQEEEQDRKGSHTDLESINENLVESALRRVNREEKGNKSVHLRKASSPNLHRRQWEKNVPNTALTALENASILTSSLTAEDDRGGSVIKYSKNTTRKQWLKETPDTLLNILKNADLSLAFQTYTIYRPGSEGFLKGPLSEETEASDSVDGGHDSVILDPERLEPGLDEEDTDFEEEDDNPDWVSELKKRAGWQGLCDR
Outline: as §1

SRPK1(h) = molecular target: T7, SRPK1(h) (Homo sapiens, UniProt Q96SB4)
T7 construct: purchased Millipore
T7 sequence (Q96SB4 whole entry): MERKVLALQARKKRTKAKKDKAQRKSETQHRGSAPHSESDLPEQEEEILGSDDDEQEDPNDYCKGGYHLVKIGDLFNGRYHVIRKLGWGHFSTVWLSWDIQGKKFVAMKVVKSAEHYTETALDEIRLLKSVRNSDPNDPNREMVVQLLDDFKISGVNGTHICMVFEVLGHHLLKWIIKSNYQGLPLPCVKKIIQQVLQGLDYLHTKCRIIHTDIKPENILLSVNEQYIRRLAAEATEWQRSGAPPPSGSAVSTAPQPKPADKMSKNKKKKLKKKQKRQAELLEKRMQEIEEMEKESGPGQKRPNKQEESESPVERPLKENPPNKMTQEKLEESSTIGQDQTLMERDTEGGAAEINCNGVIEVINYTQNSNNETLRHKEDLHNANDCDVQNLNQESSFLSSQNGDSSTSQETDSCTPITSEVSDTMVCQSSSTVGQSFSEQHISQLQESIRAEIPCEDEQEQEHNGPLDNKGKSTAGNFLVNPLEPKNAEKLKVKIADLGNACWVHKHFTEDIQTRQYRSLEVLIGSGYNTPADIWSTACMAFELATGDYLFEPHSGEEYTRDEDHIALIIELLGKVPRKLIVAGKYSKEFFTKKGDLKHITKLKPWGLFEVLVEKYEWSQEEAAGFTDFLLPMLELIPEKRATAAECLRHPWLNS
Outline: as §1

Abl(Y253F)(h) = Abl(Y253F)(h) (Homo sapiens, UniProt P00519, Y253F)
Outline: as §1

MRCKα(h) = molecular target: T8, MRCKα(h) (Homo sapiens, UniProt Q5VT25)
T8 construct: purchased Millipore
T8 sequence (Q5VT25 whole entry): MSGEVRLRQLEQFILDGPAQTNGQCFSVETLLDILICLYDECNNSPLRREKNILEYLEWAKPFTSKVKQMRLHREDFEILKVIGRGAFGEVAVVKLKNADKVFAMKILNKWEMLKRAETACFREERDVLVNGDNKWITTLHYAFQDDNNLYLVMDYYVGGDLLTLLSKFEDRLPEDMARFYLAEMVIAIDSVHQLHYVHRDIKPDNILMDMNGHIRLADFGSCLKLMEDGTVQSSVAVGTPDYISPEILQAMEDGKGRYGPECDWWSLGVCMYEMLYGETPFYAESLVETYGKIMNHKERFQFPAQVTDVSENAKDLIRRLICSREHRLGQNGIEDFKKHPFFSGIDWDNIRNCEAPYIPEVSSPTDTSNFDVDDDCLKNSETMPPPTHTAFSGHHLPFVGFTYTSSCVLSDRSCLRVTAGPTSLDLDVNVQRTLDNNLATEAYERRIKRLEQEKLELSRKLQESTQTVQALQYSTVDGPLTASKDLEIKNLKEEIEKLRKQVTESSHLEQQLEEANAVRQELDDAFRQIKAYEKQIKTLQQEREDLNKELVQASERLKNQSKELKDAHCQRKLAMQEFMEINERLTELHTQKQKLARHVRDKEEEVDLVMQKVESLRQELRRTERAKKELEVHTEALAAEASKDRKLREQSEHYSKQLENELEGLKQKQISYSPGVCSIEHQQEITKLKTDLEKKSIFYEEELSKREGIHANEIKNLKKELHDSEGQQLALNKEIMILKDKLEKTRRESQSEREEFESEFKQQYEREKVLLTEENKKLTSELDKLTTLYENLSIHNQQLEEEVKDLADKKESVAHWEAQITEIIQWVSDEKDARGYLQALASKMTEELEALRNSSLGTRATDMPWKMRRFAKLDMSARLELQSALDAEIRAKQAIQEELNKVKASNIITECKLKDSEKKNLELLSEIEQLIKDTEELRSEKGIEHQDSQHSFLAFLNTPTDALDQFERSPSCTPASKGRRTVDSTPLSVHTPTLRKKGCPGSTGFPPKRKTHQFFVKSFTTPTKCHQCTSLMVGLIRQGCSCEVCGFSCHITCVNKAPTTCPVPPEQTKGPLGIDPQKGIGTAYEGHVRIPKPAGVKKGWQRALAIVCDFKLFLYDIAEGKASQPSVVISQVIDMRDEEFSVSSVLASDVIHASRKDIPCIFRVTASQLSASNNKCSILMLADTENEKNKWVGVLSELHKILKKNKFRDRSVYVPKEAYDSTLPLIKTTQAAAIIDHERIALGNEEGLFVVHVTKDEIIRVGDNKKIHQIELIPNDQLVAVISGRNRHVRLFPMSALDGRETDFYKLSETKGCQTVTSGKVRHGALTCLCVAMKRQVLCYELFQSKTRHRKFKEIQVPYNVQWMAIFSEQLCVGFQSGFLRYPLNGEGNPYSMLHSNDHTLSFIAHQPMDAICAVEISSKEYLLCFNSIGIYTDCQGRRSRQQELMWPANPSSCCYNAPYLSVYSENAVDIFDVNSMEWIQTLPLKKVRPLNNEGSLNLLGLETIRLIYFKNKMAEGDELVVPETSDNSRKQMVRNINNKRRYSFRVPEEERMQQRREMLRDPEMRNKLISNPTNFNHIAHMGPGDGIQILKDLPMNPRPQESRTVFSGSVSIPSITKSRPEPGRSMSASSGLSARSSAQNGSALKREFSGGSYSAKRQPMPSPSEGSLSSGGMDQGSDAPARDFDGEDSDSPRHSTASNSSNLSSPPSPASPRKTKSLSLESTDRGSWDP
Outline: as §1

Snk(h) = molecular target: T9, Snk(h) (Homo sapiens, UniProt Q9NYY3)
T9 construct: purchased Millipore
T9 sequence (Q9NYY3 whole entry): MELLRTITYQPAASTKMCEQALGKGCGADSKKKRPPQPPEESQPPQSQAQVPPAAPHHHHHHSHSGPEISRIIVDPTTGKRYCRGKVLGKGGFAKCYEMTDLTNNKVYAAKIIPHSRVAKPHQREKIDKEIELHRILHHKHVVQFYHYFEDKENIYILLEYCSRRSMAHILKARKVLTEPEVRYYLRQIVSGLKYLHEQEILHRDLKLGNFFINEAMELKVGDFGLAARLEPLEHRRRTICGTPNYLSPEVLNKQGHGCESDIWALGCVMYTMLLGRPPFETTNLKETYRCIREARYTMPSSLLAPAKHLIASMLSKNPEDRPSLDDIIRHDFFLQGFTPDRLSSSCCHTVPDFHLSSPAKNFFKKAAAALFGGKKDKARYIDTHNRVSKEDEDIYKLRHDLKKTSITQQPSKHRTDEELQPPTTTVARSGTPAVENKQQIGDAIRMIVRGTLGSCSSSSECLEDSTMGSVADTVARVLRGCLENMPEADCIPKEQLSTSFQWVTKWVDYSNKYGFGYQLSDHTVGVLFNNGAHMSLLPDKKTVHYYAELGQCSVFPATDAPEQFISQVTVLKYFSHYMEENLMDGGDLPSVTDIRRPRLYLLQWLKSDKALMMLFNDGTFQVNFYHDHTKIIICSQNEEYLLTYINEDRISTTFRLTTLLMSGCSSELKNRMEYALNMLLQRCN
Outline: as §1

## FAKLAARLYRKALARQLGVAA [MMI-0300]
Fms(h)
  % activity: 45%
JAK2(h)
  % activity: 133%
DAPK2(h)
  % activity: 32%
SAPK2a(h)
  % activity: 90%
TAK1(h)
  % activity: 122%
Haspin(h)
  % activity: 48%
JNK2α2(h)
  % activity: 98%
ZIPK(h)
  % activity: 28%
NEK3(h)
  % activity: 92%
SRPK1(h)
  % activity: 90%
Abl(Y253F)(h)
  % activity: 86%

## HRRIKAWLKKIKALARQLGVAA (Mammal) [MMI-0500]
Fms(h)
  % activity: 14%
JAK2(h)
  % activity: 49%
MRCKα(h)
  % activity: 5%
DAPK2(h)
  % activity: 3%
SAPK2a(h)
  % activity: 52%
Snk(h)
  % activity: 122%
Haspin(h)
  % activity: 25%
JNK2α2(h)
  % activity: 81%
ZIPK(h)
  % activity: 1%
NEK3(h)
  % activity: 20%
SRPK1(h)
  % activity: 80%
Abl(Y253F)(h)
  % activity: 29%

## KAFAKLAARLYRKALARQLGVAA [MMI-0400]
Fms(h)
  % activity: 37%
MRCKα(h)
  % activity: 97%
DAPK2(h)
  % activity: 16%
SAPK2a(h)
  % activity: 85%
Snk(h)
  % activity: 131%
TAK1(h)
  % activity: 177%
Haspin(h)
  % activity: 36%
JNK2α2(h)
  % activity: 96%
ZIPK(h)
  % activity: 13%
NEK3(h)
  % activity: 85%
SRPK1(h)
  % activity: 96%
Abl(Y253F)(h)
  % activity: 78%

## YARAAARQARAKALARQLGVAA [MMI-0100]
Fms(h)
  % activity: 89%
JAK2(h)
  % activity: 89%
MRCKα(h)
  % activity: 98%
Snk(h)
  % activity: 94%
Haspin(h)
  % activity: 127%
NEK3(h)
  % activity: 100%
SRPK1(h)
  % activity: 69%

## YARAAARQARAKALNRQLGVA (Mammal) [MMI-0200]
Fms(h)
  % activity: 92%
JAK2(h)
  % activity: 131%
DAPK2(h)
  % activity: 92%
TAK1(h)
  % activity: 124%
Haspin(h)
  % activity: 71%
ZIPK(h)
  % activity: 67%
NEK3(h)
  % activity: 100%
SRPK1(h)
  % activity: 93%
